US20140255408A1 (Janssen / Centocor, published 2014)

B1: control monovalent anti-cMet mAb M1-K409R-gp120-F405L (bispecific antibody, human IgG1, kappa)
heavy 1: not shown
light 1: DIQMTQSPSSVSASVGDRVTITCRASQGISNWLAWFQHKPGKAPKLLIYAASSLLSGVPSRFSGSGSGTDFTLTISSLQPEDFATYYCQQANSFPITFGQGTRLEIKRTVAAPSVFIFPPSDEQLKSGTASVVCLLNNFYPREAKVQWKVDNALQSGNSQESVTEQDSKDSTYSLSSTLTLSKADYEKHKVYACEVTHQGLSSPVTKSFNRGEC
heavy 2: not shown
light 2: EIVLTQSPGTLSLSPGERATFSCRSSHSIRSRRVAWYQHKPGQAPRLVIHGVSNRASGISDRFSGSGSGTDFTLTITRVEPEDFALYYCQVYGASSYTFGQGTKLERKRTVAAPSVFIFPPSDEQLKSGTASVVCLLNNFYPREAKVQWKVDNALQSGNSQESVTEQDSKDSTYSLSSTLTLSKADYEKHKVYACEVTHQGLSSPVTKSFNRGEC
notes: also called M1-K409R-120-F405L
B2: control monovalent anti-EGFR mAb E1-F405L-gp120-K409R (bispecific antibody, human IgG1, kappa)
heavy 1: not shown
light 1: not shown
heavy 2: not shown
light 2: EIVLTQSPGTLSLSPGERATFSCRSSHSIRSRRVAWYQHKPGQAPRLVIHGVSNRASGISDRFSGSGSGTDFTLTITRVEPEDFALYYCQVYGASSYTFGQGTKLERKRTVAAPSVFIFPPSDEQLKSGTASVVCLLNNFYPREAKVQWKVDNALQSGNSQESVTEQDSKDSTYSLSSTLTLSKADYEKHKVYACEVTHQGLSSPVTKSFNRGEC
notes: also called E1-F405L-120-K409R
B3: P53A1R5-17 (designed binder, not shown: small tags and cut ends)
chain: LPAPKNLVVSEVTEDSLRLSWADPHGFYDSFLIQYQESEKVGEAINLTVPGSERSYDLTGLKPGTEYTVSIYGVHNVYKDTNMRGLPLSAEFTT
B4: P54AR4-74 (designed binder, not shown: small tags and cut ends)
chain: LPAPKNLVVSEVTEDSLRLSWGYNGDHFDSFLIQYQESEKVGEAINLTVPGSERSYDLTGLKPGTEYTVSIYGVHNVYKDTNMRGLPLSAEFTT
B5: P53A1R5-17v2 (designed binder, not shown: small tags and cut ends)
chain: LPAPKNLVVSEVTEDSARLSWADPHGFYDSFLIQYQESEKVGEAIVLTVPGSERSYDLTGLKPGTEYTVSIYGVHNVYKDTNMRGLPLSAIFTT
B6: P54AR4-17 (designed binder, not shown: small tags and cut ends)
chain: LPAPKNLVVSEVTEDSLRLSWTYDRDGYDSFLIQYQESEKVGEAINLTVPGSERSYDLTGLKPGTEYTVSIYGVHNVYKDTNMRGLPLSAEFTT
B7: P54AR4-83 (designed binder, not shown: small tags and cut ends)
chain: LPAPKNLVVSEVTEDSLRLSWDDPWAFYESFLIQYQESEKVGEAINLTVPGSERSYDLTGLKPGTEYTVSIYGVHNVYKDTNMRGLPLSAEFTT
B8: P54AR4-48 (designed binder, not shown: small tags and cut ends)
chain: LPAPKNLVVSEVTEDSLRLSWDDPRGFYESFLIQYQESEKVGEAINLTVPGSERSYDLTGLKPGTEYTVSIYGVHNVYKDTNMRGLPLSAEFTT
B9: P54AR4-73 (designed binder, not shown: small tags and cut ends)
chain: LPAPKNLVVSEVTEDSLRLSWTWPYADLDSFLIQYQESEKVGEAINLTVPGSERSYDLTGLKPGTEYTVSIYGVHNVYKDTNMRGLPLSAEFTT
B10: parental bivalent anti-c-Met antibody M1-K409R (antibody, human IgG1, kappa, V domains shown)
VH: QVQLVQSGAEVKKPGASVKVSCETSGYTFTSYGISWVRQAPGHGLEWMGWISAYNGYTNYAQKLQGRVTMTTDTSTSTAYMELRSLRSDDTAVYYCARDLRGTNYFDYWGQGTLVTVSS
VL: DIQMTQSPSSVSASVGDRVTITCRASQGISNWLAWFQHKPGKAPKLLIYAASSLLSGVPSRFSGSGSGTDFTLTISSLQPEDFATYYCQQANSFPITFGQGTRLEIKR
notes: also called parental bivalent antibody; Parental mAbs
B11: P54CR4-31 (designed binder, not shown: small tags and cut ends)
chain: LPAPKNLVVSEVTEDSLRLSWTAPDAAFDSFLIQYQESEKVGEAINLTVPGSERSYDLTGLKPGTEYTVSIYGVLGSYVFEHDVMLPLSAEFTT
B12: P114AR5P74-A5 (designed binder, not shown: small tags and cut ends)
chain: LPAPKNLVVSRVTEDSARLSWTAPDAAFDSFWIRYDEVVVGGEAIVLTVPGSERSYDLTGLKPGTEYYVNILGVKGGSISVPLSAIFTT
B13: P54AR4-81 (designed binder, not shown: small tags and cut ends)
chain: LPAPKNLVVSEVTEDSLRLSWDYDLGVYFDSFLIQYQESEKVGEAINLTVPGSERSYDLTGLKPGTEYTVSIYGVHNVYKDTNMRGLPLSAEFTT

How the values were obtained:
[1] = target: T1, human c-Met on cells (human, UniProt P08581 25-1390); assay: H441 cell binding assay (assay for c-Met binding)
T1 construct: c-Met on NCI-H441, NCI-H292, NCI-H1975 and U87-MG cells; in U-2 OS cells a beta-galactosidase fragment was fused to its C-terminus; also called hepatocyte growth factor receptor
Experimental: (§1) Purified FN3 domains (50 μL/well; 0 to 1000 nM) were added to the cells for 1 hour at 4° C. in duplicate plates. […] Cells were incubated with biotinylated-anti HIS antibody (diluted 1:160 in FACS stain buffer, 50 μL/well, R&D Systems, cat #BAM050) for 30 minutes at 4° C. […] Cells were washed three times with FACS stain buffer (150 μL/well) and left in FACS stain buffer (50 μL/well).

[2] = target: T1, human c-Met on cells; assay: cell-based or functional assay
[3] = target: T2, human EGFR on cells (human, UniProt P00533 25-1210); assay: A431 cell binding assay (assay for EGFR binding)
T2 construct: Wild type EGFR on A431, NCI-H292, NCI-H322, NCI-H441 and SNU-5 cells; in U-2 OS cells a beta-galactosidase fragment was fused to its C-terminus; also called epidermal growth factor receptor; HER1

[4] = target: T2, human EGFR on cells; assay: A431 cell binding assay, anti-penta-His-Alexa488 detection
[5] = target: T2, human EGFR on cells; assay: A431 cell EGF competition assay, competitor biotinylated EGF
[6] = target: T3, recombinant human extracellular domain of EGFR fused to an IgG1 Fc (human, UniProt P00533 25-645); assay: SPR (ProteOn), EGFR-Fc captured on anti-human Fc IgG, FN3 domain as analyte
T3 construct: Bought from R&D Systems; The residues are stated for the panning reagent; also called EGFR-Fc; EGF R-Fc; not shown: IgG1 Fc
Experimental: Select EGFR-binding FN3 domains were screened to identify those with slow off-rates (koff) in binding to EGFR-Fc on a ProteOn XPR-36 instrument (Bio-Rad) to facilitate selection of high affinity binders. Goat anti-human Fc IgG (R&D systems), at a concentration of 5 μg/mL, was directly immobilized via amine coupling (at pH 5.0) on all 6 ligand channels in horizontal orientation on the chip with a flow rate of 30 μL/min in PBS containing 0.005% Tween-20. The immobilization densities averaged about 1500 Response Units (RU) with less than 5% variation among different channels. EGFR-Fc was captured on the anti-human Fc IgG surface to a density around 600 RU in vertical ligand orientation. All tested FN3 domains were normalized to a concentration of […] and tested for their binding in horizontal orientation. All 6 analyte channels were used for the FN3 domains to maximize screening throughput. The dissociation phase was monitored for 10 minutes at a flow rate of 100 μL/min. The inter-spot binding signals were used as references to monitor non-specific binding between analytes and the immobilized IgG surface, and were subtracted from all binding responses. The processed binding data were locally fit to a 1:1 simple Langmuir binding model to extract the koff for each FN3 domain binding to captured EGFR-Fc.
Binding affinity of selected EGFR-binding FN3 domains to recombinant EGFR extracellular domain was further characterized by surface Plasmon resonance methods using a Proteon Instrument (BioRad). The assay set-up (chip preparation, EGFR-Fc capture) was similar to that described above for off-rate analysis. Selected EGFR binding FN3 domains were tested at 1 μM concentration in 3-fold dilution series in the horizontal orientation. A buffer sample was also injected to monitor the baseline stability.

[7] = target: T2, human EGFR on cells; assay: cell-based or functional assay
[8] = target: T3, recombinant human extracellular domain …; assay: affinity printed beside the clone name; SPR on EGFR-Fc taken as the method
[9] = target: human c-Met extracellular domain (human, UniProt P08581 16-932); assay: MSD plate competition assay, competitor biotinylated HGF at 10 nM
Experimental: MSD Blocker A buffer (Meso Scale Discovery, Gaithersburg, Md.) was added to each well and incubated for 2 hr at room temperature. […] After 2-hour incubation with gentle shaking at room temperature, the plates were washed 3 times with 0.1M HEPES buffer (pH 7.4). MSD Read Buffer T was diluted and dispensed and the signals were analyzed with a SECTOR Imager 6000.

[10] = target: T2, human EGFR on cells; assay: A431 cell EGF competition assay, competitor biotinylated EGF; A431 cell EGF competition assay: displaces EGF from EGFR on A431 cells
[11] = target: T4, Recombinant human c-Met Fc chimera (human, UniProt P08581 16-932); assay: HGF competition assay on coated c-Met-Fc, competitor biotinylated HGF
T4 construct: not shown: Fc part

[12] = target: T4, Recombinant human c-Met Fc chimera; assay: SPR (ProteOn), c-Met-Fc captured on anti-human Fc IgG, FN3 domain as analyte
[13] = target: T1, human c-Met on cells; assay: cell-based or functional assay; remark: listed apart in the source
[14] = target: T1, human c-Met on cells; assay: H441 cell binding assay, anti-His detection
Experimental: as §1

| Binder | EC50 [4] [nM] | IC50 [5] [nM] | Kd [6] [nM] | NCI-H292 Growth IC50 [7] [nM] | NCI-H322 Growth IC50 [7] [nM] | Phospho-EGFR IC50 (A431 cells) [7] [nM] | further results |
| --- | --- | --- | --- | --- | --- | --- | --- |
| B1 | – | – | – | – | – | – | EC50 [1]: 1 nM; inhibition of ligand-induced c-Met phosphorylation in H292 cells (IC50) [2]: 4.05 nM |
| B2 | – | – | – | – | – | – | EC50 [3]: 10.1 nM |
| B3 | 4 | 9.8 | 1.89 | 86 | 65 | > 2500 | – |
| B4 | 77 | – | – | – | – | – | – |
| B5 | – | – | – | – | – | – | Kd [8]: 1.9 nM |
| B6 | 16 | 21 | 9.62 | – | – | 184 | – |
| B7 | 2.2 | 1.8 | 0.255 | 5.9 | 9.2 | 18 | – |
| B8 | 12 | 9.8 | 7.78 | – | – | 170 | – |
| B9 | 9.4 | 4.6 | 0.197 | 83 | 73 | 141 | – |
| B10 | – | – | – | – | – | – | EC50 [1]: 0.65 nM; IC50 [9]: 14.8 nM |
| B11 | – | – | 0.383 | 1150 | > 3070 | 179 | IC50 [10]: 55 nM |
| B12 | – | – | – | – | – | – | IC50 [11]: 5.2 nM; Kd [12]: 10.1 nM; Inhibition of Proliferation of U87-MG cells (IC50) [13]: 464 nM; pMet inhibition in H441 cells (IC50) [13]: 1.08 µM; inhibition of c-Met phosphorylation in HGF-stimulated NCI-H292 cells (IC50) [2]: 610 nM; EC50 [14]: 18.7 nM |
| B13 | 84 | 121 | – | – | – | – | – |
